From US20080020399A1 come the findings set out here.

The target in data set [1] is rat liver insulin receptor purified by wheat germ lectin affinity chromatography (rat) (UniProt P15127). Nature of the data set: cell-based or functional assay.
In data set [2] the test system is biotinylated hIRS-1-p30 (domain D516-P777 of human IRS-1).
Chain of biotinylated hIRS-1-p30 (domain D516-P777 of human IRS-1) (chain, as listed by the source): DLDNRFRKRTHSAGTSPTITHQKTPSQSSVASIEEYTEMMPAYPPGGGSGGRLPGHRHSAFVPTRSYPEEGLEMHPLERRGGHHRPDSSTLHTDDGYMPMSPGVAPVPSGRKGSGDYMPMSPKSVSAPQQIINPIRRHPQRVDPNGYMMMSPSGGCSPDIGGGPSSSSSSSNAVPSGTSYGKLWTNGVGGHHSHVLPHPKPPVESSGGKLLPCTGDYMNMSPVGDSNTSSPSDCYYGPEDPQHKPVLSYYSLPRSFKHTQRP

Chain of rat liver insulin receptor purified by wheat germ lectin affinity chromatography (rat) (P15127 27-1383 limits assumed, form in doubt): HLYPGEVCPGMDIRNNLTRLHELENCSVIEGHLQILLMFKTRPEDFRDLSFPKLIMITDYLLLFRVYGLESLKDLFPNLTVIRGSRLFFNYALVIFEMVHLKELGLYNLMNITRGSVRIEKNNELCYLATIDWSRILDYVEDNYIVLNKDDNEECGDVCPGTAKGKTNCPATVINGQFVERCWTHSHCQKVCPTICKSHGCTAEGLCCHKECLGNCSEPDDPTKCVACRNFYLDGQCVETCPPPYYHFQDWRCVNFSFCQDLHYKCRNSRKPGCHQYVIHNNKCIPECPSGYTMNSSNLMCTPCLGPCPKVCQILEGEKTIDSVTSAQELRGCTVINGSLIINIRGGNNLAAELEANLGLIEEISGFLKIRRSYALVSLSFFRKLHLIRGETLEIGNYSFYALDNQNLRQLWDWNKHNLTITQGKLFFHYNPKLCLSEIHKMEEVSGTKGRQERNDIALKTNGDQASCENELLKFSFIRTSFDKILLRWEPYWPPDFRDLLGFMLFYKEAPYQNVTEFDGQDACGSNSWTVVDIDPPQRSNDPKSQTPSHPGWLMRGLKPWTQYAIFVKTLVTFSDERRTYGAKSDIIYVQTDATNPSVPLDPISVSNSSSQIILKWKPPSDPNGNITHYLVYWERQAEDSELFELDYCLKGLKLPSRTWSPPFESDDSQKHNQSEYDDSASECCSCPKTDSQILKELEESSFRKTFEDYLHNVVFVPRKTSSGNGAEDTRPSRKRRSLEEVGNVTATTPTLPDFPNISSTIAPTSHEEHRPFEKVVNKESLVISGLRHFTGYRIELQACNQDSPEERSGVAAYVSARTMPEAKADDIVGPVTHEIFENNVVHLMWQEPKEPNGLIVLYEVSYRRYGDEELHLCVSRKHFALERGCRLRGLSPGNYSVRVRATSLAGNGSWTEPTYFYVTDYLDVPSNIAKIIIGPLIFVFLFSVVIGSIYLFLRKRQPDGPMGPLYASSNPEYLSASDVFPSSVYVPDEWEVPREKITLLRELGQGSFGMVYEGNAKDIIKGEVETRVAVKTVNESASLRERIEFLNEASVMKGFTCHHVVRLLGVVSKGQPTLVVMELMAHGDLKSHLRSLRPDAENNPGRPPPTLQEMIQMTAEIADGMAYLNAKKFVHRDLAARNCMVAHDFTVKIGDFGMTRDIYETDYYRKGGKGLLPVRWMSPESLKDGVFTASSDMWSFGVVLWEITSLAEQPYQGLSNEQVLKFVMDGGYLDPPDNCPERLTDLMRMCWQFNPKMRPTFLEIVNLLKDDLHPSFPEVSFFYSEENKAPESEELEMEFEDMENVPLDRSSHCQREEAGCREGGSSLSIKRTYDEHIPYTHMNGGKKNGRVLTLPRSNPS

In data set [1], “human insulin (from UniProt P01308 25-54; P01308 90-110) (ligand)” had an ALPHAScreen readout of tyrosine phosphorylation of 85 nM biotinylated IRS fragment by the insulin-stimulated receptor of 10 nM.

With protein kinase C (serine kinase PKCδ), in data set [2], the “phosphorylation of the biotinylated IRS-1 fragment (ALPHAScreen, p-Ser antibody)” value is reported as “can be phosphorylated in the biotinylated state by the serine kinase PKCδ”.
